{"source": "patent WO2020135415A1", "about": "(dated 2020)", "key": {"PD-L1 expressed by DC": {"target": "PD-L1 expressed by DC", "sequence (Q9NZQ7 whole entry)": "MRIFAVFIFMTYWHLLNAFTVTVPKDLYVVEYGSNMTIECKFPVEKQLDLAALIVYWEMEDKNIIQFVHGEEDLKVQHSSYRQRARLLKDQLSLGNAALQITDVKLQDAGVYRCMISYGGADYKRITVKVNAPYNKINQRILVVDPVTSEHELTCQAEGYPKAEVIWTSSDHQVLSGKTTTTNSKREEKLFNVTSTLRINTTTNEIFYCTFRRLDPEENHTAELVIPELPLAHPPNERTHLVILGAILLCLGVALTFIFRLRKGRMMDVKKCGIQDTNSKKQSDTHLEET", "assay": "cell-based or functional assay"}, "human PD-L1 protein": {"target": "T1, human PD-L1 protein (human, UniProt Q9NZQ7 19-238, limits assumed)", "T1 construct": "also called hPD-L1; huPD-L1", "T1 sequence (Q9NZQ7 19-238 limits assumed)": "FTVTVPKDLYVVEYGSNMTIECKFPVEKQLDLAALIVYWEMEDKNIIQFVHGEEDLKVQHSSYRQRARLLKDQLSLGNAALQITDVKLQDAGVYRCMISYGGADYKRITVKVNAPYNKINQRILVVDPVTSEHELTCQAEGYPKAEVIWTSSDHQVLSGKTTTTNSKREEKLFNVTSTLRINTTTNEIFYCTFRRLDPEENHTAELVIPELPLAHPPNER", "assay": "binding to human PD-L1 protein; method not stated"}}}
{"binder": "hu5G11-hIgG1 (antibody, V domains shown) VH: QITLKESGPTLVKPTQTLTLTCTVSGFSLSTYGVHWIRQPPGKALEWLGVIWRGVTTDYNAAFMSRLTITKDNSKNQVVLTMNNMDPVDTATYYCARLGFYAMDYWGQGTLVTVSS VL: DIQMTQSPSSLSASVGDRVTITCKASQSVSNDVAWYQQKPGKAPKLLIYYAANRYTGVPDRFSGSGYGTDFTFTISSLQPEDIATYFCQQDYTSPYTFGQGTKLEIKR", "values": [{"measurement": "secretion of IFN-γ in MLR of CD4+:DC cells, EC50", "setting": "PD-L1 expressed by DC", "result": 35, "unit": "ng/mL"}, {"measurement": "EC50", "setting": "human PD-L1 protein", "result": 0.0213, "unit": "µg/mL"}]}
